Results taken from US10941182 (Amgen, dated 2021).
Non-standard residues stand in square brackets, D forms with d. dBip = N[C@H](Cc1ccc(-c2ccccc2)cc1)C(=O)O; Oic = O=C(O)[C@@H]1C[C@@H]2CCCC[C@@H]2N1; Phe(4-Cl) = N[C@@H](Cc1ccc(Cl)cc1)C(=O)O; Phe(4-I) = N[C@@H](Cc1ccc(I)cc1)C(=O)O; NMehArg = CN[C@@H](CCCCNC(=N)N)C(=O)O; NMeR = CN[C@@H](CCCNC(=N)N)C(=O)O; hArg = N=C(N)NCCCC[C@H](N)C(=O)O; Cha = N[C@@H](CC1CCCCC1)C(=O)O; NMeL = CN[C@@H](CC(C)C)C(=O)O; Nle = CCCC[C@H](N)C(=O)O; Aib = CC(C)(N)C(=O)O

T1: rat APJ receptor (rat, UniProt Q9JHG3 1-377)
T1 sequence (looked up): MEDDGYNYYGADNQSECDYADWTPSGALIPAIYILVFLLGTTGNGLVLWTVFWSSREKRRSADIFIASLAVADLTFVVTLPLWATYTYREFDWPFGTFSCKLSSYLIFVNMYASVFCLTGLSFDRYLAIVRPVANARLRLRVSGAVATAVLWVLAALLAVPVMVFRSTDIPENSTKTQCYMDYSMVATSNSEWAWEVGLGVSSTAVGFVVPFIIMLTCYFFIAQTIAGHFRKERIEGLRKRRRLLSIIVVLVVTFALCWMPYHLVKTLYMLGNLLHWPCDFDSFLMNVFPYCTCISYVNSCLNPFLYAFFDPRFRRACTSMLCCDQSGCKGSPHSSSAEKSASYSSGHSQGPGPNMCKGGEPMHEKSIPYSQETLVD

T2: human APJ receptor (human, UniProt P35414 1-380)
T2 sequence (looked up): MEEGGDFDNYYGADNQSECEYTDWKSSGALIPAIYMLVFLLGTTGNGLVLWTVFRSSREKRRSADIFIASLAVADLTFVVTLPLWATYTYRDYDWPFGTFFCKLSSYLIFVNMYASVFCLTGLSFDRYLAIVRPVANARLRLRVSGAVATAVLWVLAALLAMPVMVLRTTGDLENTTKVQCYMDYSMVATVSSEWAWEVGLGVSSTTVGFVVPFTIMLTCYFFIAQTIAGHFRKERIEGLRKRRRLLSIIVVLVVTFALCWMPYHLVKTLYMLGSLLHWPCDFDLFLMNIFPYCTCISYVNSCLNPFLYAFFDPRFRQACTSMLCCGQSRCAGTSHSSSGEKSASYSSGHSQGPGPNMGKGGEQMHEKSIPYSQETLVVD

B1: SEQ ID NO: 74 (peptide)
peptide: Ac-Q[hArg][NMehArg]LSHKGP[Nle]P[Phe(4-Cl)]-OH
SMILES: CCCC[C@H](NC(=O)[C@@H]1CCCN1C(=O)CNC(=O)[C@H](CCCCN)NC(=O)[C@H](Cc1c[nH]cn1)NC(=O)[C@H](CO)NC(=O)[C@H](CC(C)C)NC(=O)[C@H](CCCCNC(=N)N)N(C)C(=O)[C@H](CCCCNC(=N)N)NC(=O)[C@H](CCC(N)=O)NC(C)=O)C(=O)N1CCC[C@H]1C(=O)N[C@@H](Cc1ccc(Cl)cc1)C(=O)O
B2: SEQ ID NO: 86 (peptide)
peptide: Ac-[hArg][dR]Q[hArg]P[dR][NMeL]SHKG[Oic]EP[dBip]-OH
SMILES: CC(=O)N[C@@H](CCCCNC(=N)N)C(=O)N[C@H](CCCNC(=N)N)C(=O)N[C@@H](CCC(N)=O)C(=O)N[C@@H](CCCCNC(=N)N)C(=O)N1CCC[C@H]1C(=O)N[C@H](CCCNC(=N)N)C(=O)N(C)[C@@H](CC(C)C)C(=O)N[C@@H](CO)C(=O)N[C@@H](Cc1c[nH]cn1)C(=O)N[C@@H](CCCCN)C(=O)NCC(=O)N1[C@H](C(=O)N[C@@H](CCC(=O)O)C(=O)N2CCC[C@H]2C(=O)N[C@H](Cc2ccc(-c3ccccc3)cc2)C(=O)O)C[C@@H]2CCCC[C@@H]21
B3: SEQ ID NO: 87 (peptide)
peptide: Ac-[hArg][dR]Q[hArg]P[dR][NMeL]SHKG[Oic][Phe(4-I)]E[dBip]-OH
SMILES: CC(=O)N[C@@H](CCCCNC(=N)N)C(=O)N[C@H](CCCNC(=N)N)C(=O)N[C@@H](CCC(N)=O)C(=O)N[C@@H](CCCCNC(=N)N)C(=O)N1CCC[C@H]1C(=O)N[C@H](CCCNC(=N)N)C(=O)N(C)[C@@H](CC(C)C)C(=O)N[C@@H](CO)C(=O)N[C@@H](Cc1c[nH]cn1)C(=O)N[C@@H](CCCCN)C(=O)NCC(=O)N1[C@H](C(=O)N[C@@H](Cc2ccc(I)cc2)C(=O)N[C@@H](CCC(=O)O)C(=O)N[C@H](Cc2ccc(-c3ccccc3)cc2)C(=O)O)C[C@@H]2CCCC[C@@H]21
B4: SEQ ID NO: 85 (peptide)
peptide: Ac-[hArg][dR]Q[hArg]P[dR][NMeL]SHKGE[Phe(4-I)]P[dBip]-OH
SMILES: CC(=O)N[C@@H](CCCCNC(=N)N)C(=O)N[C@H](CCCNC(=N)N)C(=O)N[C@@H](CCC(N)=O)C(=O)N[C@@H](CCCCNC(=N)N)C(=O)N1CCC[C@H]1C(=O)N[C@H](CCCNC(=N)N)C(=O)N(C)[C@@H](CC(C)C)C(=O)N[C@@H](CO)C(=O)N[C@@H](Cc1c[nH]cn1)C(=O)N[C@@H](CCCCN)C(=O)NCC(=O)N[C@@H](CCC(=O)O)C(=O)N[C@@H](Cc1ccc(I)cc1)C(=O)N1CCC[C@H]1C(=O)N[C@H](Cc1ccc(-c2ccccc2)cc1)C(=O)O
B5: SEQ ID NO: 72 (peptide)
peptide: Ac-QR[NMeR]LSHKGP[Nle]P[Phe(4-Cl)]-OH
SMILES: CCCC[C@H](NC(=O)[C@@H]1CCCN1C(=O)CNC(=O)[C@H](CCCCN)NC(=O)[C@H](Cc1c[nH]cn1)NC(=O)[C@H](CO)NC(=O)[C@H](CC(C)C)NC(=O)[C@H](CCCNC(=N)N)N(C)C(=O)[C@H](CCCNC(=N)N)NC(=O)[C@H](CCC(N)=O)NC(C)=O)C(=O)N1CCC[C@H]1C(=O)N[C@@H](Cc1ccc(Cl)cc1)C(=O)O
B6: SEQ ID NO: 61 (peptide)
peptide: Ac-Q[hArg]P[NMeR][Cha]SHKG[Oic][Nle]P[Phe(4-Cl)]-OH
SMILES: CCCC[C@H](NC(=O)[C@@H]1C[C@@H]2CCCC[C@@H]2N1C(=O)CNC(=O)[C@H](CCCCN)NC(=O)[C@H](Cc1c[nH]cn1)NC(=O)[C@H](CO)NC(=O)[C@H](CC1CCCCC1)NC(=O)[C@H](CCCNC(=N)N)N(C)C(=O)[C@@H]1CCCN1C(=O)[C@H](CCCCNC(=N)N)NC(=O)[C@H](CCC(N)=O)NC(C)=O)C(=O)N1CCC[C@H]1C(=O)N[C@@H](Cc1ccc(Cl)cc1)C(=O)O
B7: SEQ ID NO: 83 (peptide)
peptide: Ac-[hArg][dR]Q[hArg]P[dR][NMeL]SHEG[Oic][Phe(4-I)]P[dBip]-OH
SMILES: CC(=O)N[C@@H](CCCCNC(=N)N)C(=O)N[C@H](CCCNC(=N)N)C(=O)N[C@@H](CCC(N)=O)C(=O)N[C@@H](CCCCNC(=N)N)C(=O)N1CCC[C@H]1C(=O)N[C@H](CCCNC(=N)N)C(=O)N(C)[C@@H](CC(C)C)C(=O)N[C@@H](CO)C(=O)N[C@@H](Cc1c[nH]cn1)C(=O)N[C@@H](CCC(=O)O)C(=O)NCC(=O)N1[C@H](C(=O)N[C@@H](Cc2ccc(I)cc2)C(=O)N2CCC[C@H]2C(=O)N[C@H](Cc2ccc(-c3ccccc3)cc2)C(=O)O)C[C@@H]2CCCC[C@@H]21
B8: SEQ ID NO: 84 (peptide)
peptide: Ac-[hArg][dR]Q[hArg]P[dR][NMeL]SHKE[Oic][Phe(4-I)]P[dBip]-OH
SMILES: CC(=O)N[C@@H](CCCCNC(=N)N)C(=O)N[C@H](CCCNC(=N)N)C(=O)N[C@@H](CCC(N)=O)C(=O)N[C@@H](CCCCNC(=N)N)C(=O)N1CCC[C@H]1C(=O)N[C@H](CCCNC(=N)N)C(=O)N(C)[C@@H](CC(C)C)C(=O)N[C@@H](CO)C(=O)N[C@@H](Cc1c[nH]cn1)C(=O)N[C@@H](CCCCN)C(=O)N[C@@H](CCC(=O)O)C(=O)N1[C@H](C(=O)N[C@@H](Cc2ccc(I)cc2)C(=O)N2CCC[C@H]2C(=O)N[C@H](Cc2ccc(-c3ccccc3)cc2)C(=O)O)C[C@@H]2CCCC[C@@H]21
B9: SEQ ID NO: 82 (peptide)
peptide: Ac-[hArg][dR]Q[hArg]P[dR][NMeL]SEKG[Oic][Phe(4-I)]P[dBip]-OH
SMILES: CC(=O)N[C@@H](CCCCNC(=N)N)C(=O)N[C@H](CCCNC(=N)N)C(=O)N[C@@H](CCC(N)=O)C(=O)N[C@@H](CCCCNC(=N)N)C(=O)N1CCC[C@H]1C(=O)N[C@H](CCCNC(=N)N)C(=O)N(C)[C@@H](CC(C)C)C(=O)N[C@@H](CO)C(=O)N[C@@H](CCC(=O)O)C(=O)N[C@@H](CCCCN)C(=O)NCC(=O)N1[C@H](C(=O)N[C@@H](Cc2ccc(I)cc2)C(=O)N2CCC[C@H]2C(=O)N[C@H](Cc2ccc(-c3ccccc3)cc2)C(=O)O)C[C@@H]2CCCC[C@@H]21
B10: SEQ ID NO: 80 (peptide)
peptide: Ac-[hArg][dR]Q[hArg]P[dR]ESHKG[Oic][Phe(4-I)]P[dBip]-OH
SMILES: CC(=O)N[C@@H](CCCCNC(=N)N)C(=O)N[C@H](CCCNC(=N)N)C(=O)N[C@@H](CCC(N)=O)C(=O)N[C@@H](CCCCNC(=N)N)C(=O)N1CCC[C@H]1C(=O)N[C@H](CCCNC(=N)N)C(=O)N[C@@H](CCC(=O)O)C(=O)N[C@@H](CO)C(=O)N[C@@H](Cc1c[nH]cn1)C(=O)N[C@@H](CCCCN)C(=O)NCC(=O)N1[C@H](C(=O)N[C@@H](Cc2ccc(I)cc2)C(=O)N2CCC[C@H]2C(=O)N[C@H](Cc2ccc(-c3ccccc3)cc2)C(=O)O)C[C@@H]2CCCC[C@@H]21
B11: SEQ ID NO: 66 (peptide)
peptide: Ac-RQRP[NMeR][Cha]SHKGP[Nle]P[Phe(4-Cl)]-OH
SMILES: CCCC[C@H](NC(=O)[C@@H]1CCCN1C(=O)CNC(=O)[C@H](CCCCN)NC(=O)[C@H](Cc1c[nH]cn1)NC(=O)[C@H](CO)NC(=O)[C@H](CC1CCCCC1)NC(=O)[C@H](CCCNC(=N)N)N(C)C(=O)[C@@H]1CCCN1C(=O)[C@H](CCCNC(=N)N)NC(=O)[C@H](CCC(N)=O)NC(=O)[C@H](CCCNC(=N)N)NC(C)=O)C(=O)N1CCC[C@H]1C(=O)N[C@@H](Cc1ccc(Cl)cc1)C(=O)O

Each binder was assayed against T1, rat APJ receptor (assay: cell-based or functional assay).

Binder	EC50 Rat APJ Receptor
Ac-[hArg][dR]QEP[dR][NMeL]SHKG[Oic][Phe(4-I)]P[dBip]-OH [SEQ ID NO: 77]	2.84 nM
B1	17.3 nM
RLIEDICLPRWGCLWEDDXXQRPRLSHKGPXPF ({Acetyl-NH}RLIEDICLPRWGCLWEDD[Aeea][Aeea]QRP[NMeArg]LSHKGP[Nle]P[4-Cl-F]{COOH}) [SEQ ID NO: 90]	0.633 nM
QRPRXSHKGPXXF ({Acetyl-NH}qRP[NMeArg][Cha]SHKG[aMePro][Nle][Aib][4-Cl-F]{COOH}) [SEQ ID NO: 93]	0.79 nM
B2	> 4170 nM
RLIEDICLPRWGCLWXXQRPRLSHKGPXPF ({Acetyl-NH}RLIEDICLPRWGCLW[Aeea][Aeea]QRP[NMeArg]LSHKGP[Nle]P[4-Cl-F]{COOH}) [SEQ ID NO: 91]	0.124 nM
B3	58.9 nM
Ac-E[dR]Q[hArg]P[dR][NMeL]SHKG[Oic][Phe(4-I)]P[dBip]-OH [SEQ ID NO: 75]	1.08 nM
B4	> 4170 nM
B5	40.6 nM
B6	0.189 nM
B7	84.7 nM
B8	89.3 nM
Ac-QRP[NMeR][Cha]SHKG[Oic][Nle][Aib][Phe(4-Cl)]-OH [SEQ ID NO: 92]	3.23 nM
B9	53.9 nM
B10	68.7 nM
B11	0.156 nM

Each binder was assayed against T2, human APJ receptor (assay: cell-based or functional assay).

Binder	EC50 Human APJ Receptor
Ac-[hArg][dR]QEP[dR][NMeL]SHKG[Oic][Phe(4-I)]P[dBip]-OH [SEQ ID NO: 77]	4.92 nM
B1	0.48 nM
RLIEDICLPRWGCLWEDDXXQRPRLSHKGPXPF ({Acetyl-NH}RLIEDICLPRWGCLWEDD[Aeea][Aeea]QRP[NMeArg]LSHKGP[Nle]P[4-Cl-F]{COOH}) [SEQ ID NO: 90]	0.14 nM
QRPRXSHKGPXXF ({Acetyl-NH}qRP[NMeArg][Cha]SHKG[aMePro][Nle][Aib][4-Cl-F]{COOH}) [SEQ ID NO: 93]	0.229 nM
B2	> 4170 nM
RLIEDICLPRWGCLWXXQRPRLSHKGPXPF ({Acetyl-NH}RLIEDICLPRWGCLW[Aeea][Aeea]QRP[NMeArg]LSHKGP[Nle]P[4-Cl-F]{COOH}) [SEQ ID NO: 91]	0.0357 nM
B3	52.7 nM
Ac-E[dR]Q[hArg]P[dR][NMeL]SHKG[Oic][Phe(4-I)]P[dBip]-OH [SEQ ID NO: 75]	1.56 nM
B4	> 4170 nM
B5	1.36 nM
B6	0.159 nM
B7	54.5 nM
B8	18.1 nM
Ac-QRP[NMeR][Cha]SHKG[Oic][Nle][Aib][Phe(4-Cl)]-OH [SEQ ID NO: 92]	0.679 nM
B9	23.2 nM
B10	127 nM
B11	0.0405 nM
